From PMC8682993 (Science Advances, 2021) come the findings set out here.

Positions count from the first letter of the chain named. Names may count otherwise. “And” between values parts separate entries of the source, which are not always exact repeats. Equal entries are not always repeated.

Test [1] concerns the target T1, full-length yeast Hsp90 (Hsp82) (yeast, UniProt P02829 1-709). The test is described as follows: AUC.
For test [2], the target named is T1, full-length yeast Hsp90 (Hsp82). The test is described as follows: fluorescence polarisation. (In general: In fluorescence polarisation assays a small probe gives low polarisation when free and higher when bound to something large.)

T1 sequence (P02829 whole entry): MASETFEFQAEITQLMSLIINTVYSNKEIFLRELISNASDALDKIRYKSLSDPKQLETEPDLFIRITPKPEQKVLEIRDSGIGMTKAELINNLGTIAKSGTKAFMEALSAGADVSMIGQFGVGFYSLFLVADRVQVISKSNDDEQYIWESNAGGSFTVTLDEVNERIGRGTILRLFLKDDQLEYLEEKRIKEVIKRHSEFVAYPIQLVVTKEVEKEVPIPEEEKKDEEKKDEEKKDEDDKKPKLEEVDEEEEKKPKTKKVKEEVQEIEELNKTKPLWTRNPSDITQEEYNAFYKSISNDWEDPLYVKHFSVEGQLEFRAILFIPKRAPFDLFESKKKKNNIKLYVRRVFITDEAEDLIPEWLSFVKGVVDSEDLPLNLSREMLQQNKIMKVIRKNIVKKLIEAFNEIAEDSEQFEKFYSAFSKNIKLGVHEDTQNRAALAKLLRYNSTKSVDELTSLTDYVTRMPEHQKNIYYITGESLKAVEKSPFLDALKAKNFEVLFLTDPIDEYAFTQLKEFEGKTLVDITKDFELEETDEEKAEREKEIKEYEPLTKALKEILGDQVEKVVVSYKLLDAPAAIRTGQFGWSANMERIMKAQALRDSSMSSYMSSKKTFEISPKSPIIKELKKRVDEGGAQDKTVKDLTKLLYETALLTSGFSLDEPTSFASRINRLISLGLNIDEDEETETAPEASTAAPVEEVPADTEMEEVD

B1: MR-LBD (C805S/A841C) (domain or fragment)
chain: APTKEPSVNSALVPQLTSITHALTPSPAMILENIEPETVYAGYDNSKPDTAESLLSTLNRLAAKQMIQVVKWAKVLPGFKNLPLEDQITLIQYSWMSLSSFALSWRSYKHTNSQLLYFAPDLVFNEEKMHQSCMYELCQGMRQISLQFVRLQLTFEEYSIMKVLLLLSTVPKDGLKSQAAFEEMRTNYIKELRKMVTKCPNSSGQSWQRFYQLTKLLDSMHDLVSDLLEFCFYTFRESQALKVEFPAMLVEIITDQLPKVESGNAKPLYFHRK
In the case of B1, the binding result in test [1] is reported as “binds”.

B2: p53-DBD (C124S/C229S/C277S) (domain or fragment)
chain: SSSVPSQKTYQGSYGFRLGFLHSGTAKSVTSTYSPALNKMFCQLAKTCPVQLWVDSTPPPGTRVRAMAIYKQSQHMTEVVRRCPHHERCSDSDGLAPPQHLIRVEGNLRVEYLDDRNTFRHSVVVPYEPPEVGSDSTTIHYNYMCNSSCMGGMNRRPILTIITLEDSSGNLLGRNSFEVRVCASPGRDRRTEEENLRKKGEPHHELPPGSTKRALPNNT
For the molecule B2, in test [1], the binding result is on record as “binds”.

B3: rat MR-LBD (amino acids 709 to 981; C805S) (domain or fragment)
chain: B1 chain with C133A
modifications: ATTO 488 maleimide, randomly on cysteine residues (anisotropy and AUC)
On to B3, for which, in test [2], the equilibrium dissociation constant (Kd) is 5.7 µM and 5.3 µM and 2.2 µM and 1.9 µM.

Usually Kd stands for the concentration at which binding is half-saturated. Read a high Kd as lower affinity.
